The values below come from US9271946B2, “Use of a RAR antagonist or inverse agonist for the treatment of chemotherapy and/or radiation therapy side effects” (IO Therapeutics, Inc., priority 2006, dated 2016).

The subject of assay [1] is CPM-induced leukopenic male BDF1 mice. Description: cyclophosphamide-induced mouse model of leukopenia, blood cell recovery (Example 1). Format: in vivo. As to conditions: 10 μg/kg s.c. at day 2. An excerpt: Mice purchased from Charles River Laboratories (Wilmington, Mass.) were housed individually in micro-isolater cages in a 12-hour light/dark cycle. They were housed under pathogen-free conditions, and received a normal standard diet and water ad libitum. They were acclimated for one week at the Association for Assessment and Accreditation of Laboratory Animal Care (AAALAC) accredited animal facility (Allergan Inc., Irvine, Calif.) prior to experiments. Study designs were approved by the Institutional Animal Care and Use Committee. Body weights were monitored throughout each study. Weight of the mice was in the range of 22-27 g at the day of treatment initiation. The mice were healthy, not previously used in other experimental procedures.
Leukopenia was induced in male BDF1 mice (C57Bl×DBA2, 7.5-12 weeks) by an intra-peritoneal (i.p.) injection of 200 mg/kg Cyclophosphamide (CPM, Sigma-Aldrich, Saint Louis, Mo.) in 0.2 ml saline. The effect of VTP 194310 on leukocyte recovery was evaluated by oral gavage of animals with 1 mg/kg of VTP 194310 as indicated in the results section. VTP 194310 (dissolved in DMSO) was diluted through peanut oil as the vehicle (dosed at 5 ml/kg). Control mice were given DMSO and vehicle alone. As a positive control, granulocytopoiesis was stimulated in CPM-treated mice by a single sub-cutaneous injection of 10 μg/kg pegylated recombinant methionyl human granulocyte colony-stimulating factor (PEG-r-metHuG-CSF) (Neulasta, Pegfilgrastim; Amgen, Thousand Oaks, Calif.) on day 2. Three separate experiments were performed.
Peripheral blood (60 μl) was collected under anaesthesia from the retroorbital sinus of the mice with heparinized capillary tubes and transferred to EDTA-coated microtainer tubes (Becton Dickinson, Franklin Lakes, N.J.). White cell, neutrophil, and lymphocyte counts were obtained for at least three mice per group by diluting the blood 1:4 with PBS containing 5% bovine serum albumin (Fraction V; Sigma, Saint Louis, Mo.), and by using an Advia 120 Hematology System (Bayer HealthCare Diagnostics Division, Tarrytown, N.Y.).

Assay [2] concerns CPM-induced neutropenic male BDF1 mice. Put plainly: mono-therapy and combination therapy on neutrophil recovery in CPM-induced neutropenic mice (Example 4). It counts as in vivo, mouse. As to conditions: monotherapy; CPM 150 mg/kg Day 0; VTP 194310 1 or 3 mg/kg/day oral Days −1 to 1; PEG-G-CSF 1 or 10 μg/kg s.c. Day 2. The method, then: VTP 194310 DMSO stock solution was made by weighing out VTP 194310 and dissolved in DMSO (25 mg/1.33 ml DMSO). This stock solution was then mixed with Vehicle (39.2 ml Corn Oil+0.8 ml DMSO).
The 3.0 mg/kg VTP194310 solution was made by mixing 39.2 ml Corn Oil+0.8 ml VTP 194310 DMSO Stock.
The 1.0 mg/kg VTP194310 solution was made by diluting the VTP194310 DMSO Stock 1:3 with DMSO (e.g. 1 ml DMSO+0.5 ml 4310 Stock), and then combining 39.2 ml Corn Oil+0.8 ml of the diluted VTP194310 Stock.
The 1 and 10 μg/kg PEG-G-CSF solutions were made by diluting 6 mg/ml stock with PBS.
Male BDF1 mice (C57Bl×DBA2), 7-8 weeks old, DOB: 1 Jun. 2006) were used in this experiment.
35 μl of blood (via the submandibular vein) were collected according to the scheduled time points or until the full recovery of blood cells and platelets. The blood samples were analyzed after 1:5 dilution with PBS saline containing 2% BSA (Fraction V) and 0.2 mM EDTA on the Hematology Analyzer Cell-DYN 3700 (Abbott Diagnostics).
Each group of mice were treated with vehicle, VTP 194310 at 3 mg/kg, PEG-G-CSF at 1 or 10 μg/kg, and CPM at 150 mg/kg. The mean numbers of total white blood cells (WBC), neutrophils, lymphocytes, red blood cells (RBC) and platelets and standard error (SE) for data obtained for each treated group are shown in FIG. 4. […] Combination treatment with VTP 194310 and PEG-G-CSF further increased recovery.

For assay [3], the system named is 5-FU-induced neutropenic male BDF1 mice. Put plainly: monotherapy and combination therapy on neutrophil recovery in 5-FU-induced neutropenic mice (Example 5). Format: in vivo, mouse. To be noted: monotherapy; 5-FU 150 mg/kg i.v. Day 0; VTP 194310 3 mg/kg/day oral Days 2 to 4; PEG-G-CSF 10 μg/kg s.c. Day 5, 6, or 7. The method, then: VTP194310 DMSO Stock solution was made by weighing out VTP194310 and dissolving it in DMSO (25 mg/1.33 ml DMSO).
The Vehicle solution was made by mixing 39.2 ml Corn Oil+0.8 ml DMSO.
The 3.0 mg/kg VTP194310 solution was made by mixing 39.2 ml Corn Oil+0.8 ml VTP 194310 DMSO Stock solution.
The 150 mg/kg 5-FU solution was made by weighing out 187.5 mg 5-FU and mixing it with 10 g saline.
The 10 μg/kg PEG-G-CSF solution was made by diluting 6 mg/ml stock with PBS.
Male BDF1 mice (C57Bl×DBA2), 9 weeks old, DOB: 26 Jun. 2006) were used in this experiment.
Each group of mice were treated with 150 mg/kg 5-FU intravenously on Day 0, vehicle or VTP194310 orally by gavage at 3 mg/kg/day on Days 2 to 4, and/or subcutaneously with PEG-G-CSF at 10 μg/kg on Days 5, 6, or 7 according to the regimens listed in the table. The mean numbers of total white blood cells (WBC), neutrophils, lymphocytes, red blood cells (RBC) and platelets and standard error (SE) of data obtained for each treated group are shown in FIG. 6.

B1: PEG-G-CSF: pegylated recombinant methionyl human granulocyte colony-stimulating factor (Neulasta, Pegfilgrastim; Amgen) (protein, chains of the INN, looked up)
chain: TPLGPASSLPQSFLLKCLEQVRKIQGDGAALQEKLCATYKLCHPEELVLLGHSLGIPWAPLSSCPSQALQLAGCLSQLHSGLFLYQGLLQALEGISPELGPTLDTLQLDVADFATTIWQQMEELGMAPALQPTQGAMPAFASAFQRRAGGVLVASHLQSFLEVSYRVLRHLAQP
modifications: N-terminal Met; PEG
For B1, in assay [1], the “blood neutrophil level at day 8” value is “declined by day 8 to numbers that were observed in the control group”, the “day of peak blood neutrophil level” value came out at 7 days and the “number of blood neutrophils” value was “sharp rise”. In addition, the “neutrophil recovery relative to control” value in assay [2] is listed as “enhanced neutrophil recovery”. Further, the “recovery of neutrophils relative to control” value in assay [3] was “little effect”.
